According to US20150284450A1, “COMBINATION THERAPIES USING ANTI-PSEUDOMONAS PSL AND PCRV BINDING MOLECULES” (priority 2012, published 2015):
Numbering of substitutions follows the chain as printed. In names and notes the source's numbering stands.

What was measured:
[1] = tested on: P. aeruginosa 6077 (exoU+); test: Rabbit red blood cell lysis inhibition assay with strain 6077; format: cell-based, Pseudomonas aeruginosa; settings: strain 6077; FIG. 12D-E
Protocol: Percent inhibition of cytotoxicity analysis was analysed for the parental V2L2 mAb, mAb166 (positive control) and R347 (negative control), where the antibodies were administered to cultured broncho-epithelial cell line A549 combined with log-phase P. aeruginosa strain 6077 (exoU+) at a MOI of approximately 10. A549 lysis was assayed by measuring released lactate dehydrogenase (LDH) activity and lysis in the presence of mAbs was compared to wells without mAb to determine percent inhibition. The V2L2 mAb, mAb166 (positive control) and R347 (negative control) were evaluated for their ability to prevent lysis of RBCs, where the antibodies were mixed with log-phase P. aeruginosa 6077 (exoU^+) and washed rabbit red blood cells (RBCs) and incubated for 2 hours at 37°. Intact RBCs were pelleted and the extent of lysis determined by measuring the OD405 of the cell-free supernatant. Lysis in the presence of anti-PcrV mAbs was compared to wells without mAb to determine percent inhibition.

[2] = tested on: P. aeruginosa 6294 (O6); test: Acute pneumonia model in mice, strain 6294; format: in vivo, Pseudomonas aeruginosa
Protocol: (§1) Antibodies or PBS were administered 24 hours before infection in each model. P. aeruginosa acute pneumonia, keratitis, and thermal injury infection models were performed as described (DiGiandomenico, A., et al., Proc Natl Acad Sci USA 104, 4624-4629 (2007)), with modifications. In the acute pneumonia model, BALB/c mice (The Jackson Laboratory) were infected with P. aeruginosa strains suspended in a 0.05 ml inoculum. In the thermal injury model, CF-1 mice (Charles River) received a 10% total body surface area burn with a metal brand heated to 92° C. for 10 seconds. Animals were infected subcutaneously with P. aeruginosa strain 6077 at the indicated dose. For organ burden experiments, acute pneumonia was induced in mice followed by harvesting of lungs, spleens, and kidneys 24 hours post-infection for determination of CFU.

[3] = tested on: P. aeruginosa 6206 (O11-ExoU+); test: Acute pneumonia model in mice, strain 6206; format: in vivo, Pseudomonas aeruginosa; settings: 6206; W4-RAD 0.2 mg/kg; monitored 120 hours; FIG. 21A
Protocol: as §1

[4] = tested on: P. aeruginosa 6077 (O11-cytotoxic); test: Corneal infection (keratitis) model in mice, strain 6077; format: in vivo, Pseudomonas aeruginosa; settings: C3H/HeN mice, IP dosing 16 hours prior to 6077 (1×10^6 CFU), FIG. 8H
Protocol: as §1
Cam-003 and WapR-004 efficacy was next evaluated in a P. aeruginosa corneal infection model which emphasizes the pathogens ability to attach and colonize damaged tissue. […] FIG. 8 (H): The activity of anti-Psl and anti-PcrV monoclonal antibodies V2L2 was tested in a P. aeruginosa mouse ocular keratitis model. C3H/HeN mice were injected intraperitoneally (IP) with PBS or a control IgG1 antibody (R347) at 45 mg/kg or WapR-004 (α-Psl) at 5 mg/kg or V2L2 (α-PcrV) at 5 mg/kg, 16 hours prior to infection with 6077 (O11-cytotoxic−1×10^6 CFU) Immediately before infection, mice were anesthetized followed by initiation of three 1 mm scratches on the cornea and superficial stroma of one eye of each mouse using a 27-gauge needle under a dissection microscope, followed by topical application of P. aeruginosa 6077 strain in a 5 μl inoculum. Eyes were photographed at 48 hours post infection followed by corneal grading by visualization of eyes under a dissection microscope. Grading of corneal infection was performed as previously described by Preston et al. (Preston, M J., 1995, Infect. Immun. 63:3497). Briefly, infected eyes were graded 48 h after infection with strain 6077 by an investigator who was unaware of the animal treatments. The following grading scheme was used: grade 0, eye macroscopically identical to an uninfected eye; grade 1, faint opacity partially covering the pupil; grade 2, dense opacity covering the pupil; grade 3, dense opacity covering the entire pupil; grade 4, perforation of the cornea (shrinkage of the eyeball).

[5] = tested on: P. aeruginosa serogroup 05 strain (PAO1.lux); test: Opsonophagocytic killing (OPK) assay with luminescent PAO1.lux, HL-60 cells and baby rabbit serum; format: cell-based, Pseudomonas aeruginosa; settings: FIG. 10C, 11N-Q
Protocol: This example describes the evaluation of prioritized human IgG1 antibodies to promote OPK of P. aeruginosa. […] OPK assays were performed as described in (DiGiandomenico, A., et al., Infect Immun 72, 7012-7021 (2004)), with modifications. Briefly, assays were performed in 96-well plates using 0.025 ml of each OPK component; P. aeruginosa strains; diluted baby rabbit serum; differentiated HL-60 cells; and monoclonal antibody. In some OPK assays, luminescent P. aeruginosa strains, which were constructed as described (Choi, K. H., et al., Nat Methods 2, 443-448 (2005))., were used. Luminescent OPK assays were performed as described above but with determination of relative luciferase units (RLUs) using a Perkin Elmer ENVISION Multilabel plate reader (Perkin Elmer).

B1: V2L2-GL: V2L2-germlined mAb (antibody, V domains shown)
VH: EVQLLESGGGLVQPGGSLRLSCAASGFTFSSYAMNWVRQAPGKGLEWVSAITISGITAYYTDSVKGRFTISRDNSKNTLYLQMNSLRAEDTAVYYCAKEEFLPGTHYYYGMDVWGQGTTVTVSS
VL: AIQMTQSPSSLSASVGDRVTITCRASQGIRNDLGWYQQKPGKAPKLVIYSASTLQSGVPSRFSGSGSGTDFTLSISSLQPDDFATYYCLQDYNYPWTFGQGTKVEIK
modifications: V2L2-GL VH; V2L2-MD and V2L2-GL VL
notes: V2L2-germlined mAb
[1]
  prevention of RBC lysis: demonstrated prevention of RBC lysis

B2: WapR-004RAD: identical to WapR-004 except for substitution G98A of the VH; VH SEQ ID NO: 74, VL SEQ ID NO: 12 (antibody, V domains shown)
VH: EVQLLESGPGLVKPSETLSLTCNVAGGSISPYYWTWIRQPPGKGLELIGYIHSSGYTDYNPSLKSRVTISGDTSKKQFSLHVSSVTAADTAVYFCARADWDLLHALDIWGQGTLVTVSS
VL: EIVLTQSPSSLSTSVGDRVTITCRASQSIRSHLNWYQQKPGKAPKLLIYGASNLQSGVPSRFSGSGSGTDFTLTISSLQPEDFATYYCQQSYSFPLTFGGGTKLEIK
modifications: WapR-004RAD VH; WapR-004 & WarR-004RAD VL
[2]; 2.5×10^7 CFU 6294, Bs2-/Bs3-V2L2 0.7 mg/kg, V2L2 or W4-RAD 0.5 mg/kg, FIG. 23A
  organ burden in lung, spleen and kidney: no effect on decreasing organ burden
[2]; 6294, bispecifics 0.28 mg/kg, V2L2 or W4-RAD 0.2 mg/kg, FIG. 24
  survival effect, in words: did not affect survival
[3]
  animals survived: Approximately 90%
[4]
  bacterial CFU in total eye homogenates compared to R347 control: reduced bacterial colony forming units (CFU) in total eye homogenates
[4]; graded 48 h after infection
  corneal pathology compared to R347 control: significantly less pathology

B3: Psl0588: lead optimized anti-Psl clone; VH SEQ ID NO:292, VL SEQ ID NO:293 (antibody, V domains shown)
VH: QVQLQESGPGLVKPSETLSLTCTVSGGSISPYYWTWIRQPPGKGLELIGYIHSSGYTDYNPSLKSRVTISGDTSKKQFSLKLSSVTAADTAVYYCARADDPFPGYLDIWGQGTMVTVSS
VL: B2 VL with E1D, V3Q, T13A, Y92D, S93T, T97K, L104V
modifications: Psl0588-Germline VH
[5]
  OPK activity of lead optimized anti-Psl clones (basis of selection): enhanced OPK activity

B4: Psl0225: lead optimized anti-Psl clone; VH SEQ ID NO:290, VL SEQ ID NO:291 (antibody, V domains shown)
VH: B3 VH with D99M, P101I, F102E, G104H, Y105A
VL: B2 VL with E1D, V3Q, T13A, Y92D, S93D, F94G, P95F, L96P, T97N, L104V
modifications: Psl0225-Germline VH; Psl0225-Germline VL
[5]
  OPK activity of lead optimized anti-Psl clones (basis of selection): enhanced OPK activity

B5: Psl0337: lead optimized anti-Psl clone; VH SEQ ID NO:295, VL SEQ ID NO:296 (antibody, V domains shown)
VH: B3 VH with D100W, P101D, F102H, P103K, G104H, Y105A
VL: B2 VL with E1D, V3Q, T13A, Q90D, Y92S, F94W, L104V
modifications: Psl0337-Germline VH; Psl0337-Germline VL
[5]
  OPK activity of lead optimized anti-Psl clones (basis of selection): enhanced OPK activity
